Data: PMC10764275

Biological target: Human ACE2 with Fc tag (human) (UniProt Q9BYF1)
Test: SPR

Sequence of Human ACE2 with Fc tag (human) (Q9BYF1 18-740): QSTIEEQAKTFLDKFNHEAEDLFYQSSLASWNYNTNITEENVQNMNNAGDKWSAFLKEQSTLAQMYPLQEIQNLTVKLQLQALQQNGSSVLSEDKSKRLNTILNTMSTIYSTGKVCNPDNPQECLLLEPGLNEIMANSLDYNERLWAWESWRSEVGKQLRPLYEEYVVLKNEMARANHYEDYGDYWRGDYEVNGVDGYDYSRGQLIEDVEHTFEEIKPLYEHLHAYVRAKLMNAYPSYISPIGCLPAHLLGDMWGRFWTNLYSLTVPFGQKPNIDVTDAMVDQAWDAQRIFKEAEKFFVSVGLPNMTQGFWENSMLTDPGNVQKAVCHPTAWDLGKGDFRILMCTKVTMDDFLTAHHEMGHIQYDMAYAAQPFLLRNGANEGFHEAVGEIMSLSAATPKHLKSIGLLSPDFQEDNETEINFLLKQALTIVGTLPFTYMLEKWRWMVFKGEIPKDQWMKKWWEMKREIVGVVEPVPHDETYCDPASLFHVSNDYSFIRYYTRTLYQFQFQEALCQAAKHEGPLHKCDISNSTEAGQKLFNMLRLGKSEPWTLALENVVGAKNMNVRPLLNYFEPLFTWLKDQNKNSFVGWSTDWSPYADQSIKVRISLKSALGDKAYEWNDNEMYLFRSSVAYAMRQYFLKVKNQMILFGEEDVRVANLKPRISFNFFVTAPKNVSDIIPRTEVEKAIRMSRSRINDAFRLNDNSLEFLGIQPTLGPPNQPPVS

WT RBD
Kd: 0.016 µM | koff: 0.0051 s⁻¹
